The source of these data is patent US20150152192A1 (SAMSUNG ELECTRONICS, published 2015).

What all share (assay): ELISA, scFv coated, 250 ng FLAG-tagged Ang2 mutant, anti-FLAG-HRP
For orientation: An ELISA detects its analyte on a solid surface through an enzyme-linked reagent.

Assay [1] deals with T1, Ang2 with P452 mutated with alanine, tagged with FLAG (human, UniProt O15123 19-496, limits assumed).
T1 sequence: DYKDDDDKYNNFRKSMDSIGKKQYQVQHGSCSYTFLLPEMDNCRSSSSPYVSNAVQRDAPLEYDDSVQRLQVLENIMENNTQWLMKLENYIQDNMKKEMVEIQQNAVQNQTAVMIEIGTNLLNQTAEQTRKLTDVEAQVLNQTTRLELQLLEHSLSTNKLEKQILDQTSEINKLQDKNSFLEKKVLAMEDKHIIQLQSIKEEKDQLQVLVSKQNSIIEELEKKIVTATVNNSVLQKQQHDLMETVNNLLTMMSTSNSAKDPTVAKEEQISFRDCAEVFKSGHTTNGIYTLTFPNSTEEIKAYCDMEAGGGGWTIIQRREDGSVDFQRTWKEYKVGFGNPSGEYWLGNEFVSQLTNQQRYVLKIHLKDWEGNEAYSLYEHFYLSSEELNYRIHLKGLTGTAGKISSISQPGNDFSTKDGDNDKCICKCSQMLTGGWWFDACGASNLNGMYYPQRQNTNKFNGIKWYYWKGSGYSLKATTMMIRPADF
How it is done: (§1) A 96-well MaxiSorp™ flat-bottom plate (Nunc) was coated with 50 μl of the anti-Ang2 scFv selected above. After that, the plate was washed five times with 0.05% (v/v) Tween-20-containing PBS and then blocked with 1% (v/v) BSA-containing PBS at a room temperature for 2 hours. […] Thereafter, the plate was washed five times with 0.05% Tween-20-containing PBS and then, an HRP-conjugated anti-FLAG antibody (SIGMA) diluted in 1% (v/v) BSA-containing PBS at 1:5,000 ratio (v/v) was added in the amount of 50 μl to each well to react at a room temperature for 1 hour, followed by washing five times with 0.1% (v/v) Tween-20-containing PBS.
(§2) Finally, 100 μl of TMB substrate (cell signal) was added to each well of the plate to induce color development and then, the reaction was ceased by the addition of 50 μl of 5N H₂SO₄ solution and OD450 values were measured on a plate reader (Molecular Devices).

Assay [2] has as its target T2, Ang2 with N467 mutated with alanine, tagged with FLAG (human, UniProt O15123 19-496, limits assumed).
T2 sequence: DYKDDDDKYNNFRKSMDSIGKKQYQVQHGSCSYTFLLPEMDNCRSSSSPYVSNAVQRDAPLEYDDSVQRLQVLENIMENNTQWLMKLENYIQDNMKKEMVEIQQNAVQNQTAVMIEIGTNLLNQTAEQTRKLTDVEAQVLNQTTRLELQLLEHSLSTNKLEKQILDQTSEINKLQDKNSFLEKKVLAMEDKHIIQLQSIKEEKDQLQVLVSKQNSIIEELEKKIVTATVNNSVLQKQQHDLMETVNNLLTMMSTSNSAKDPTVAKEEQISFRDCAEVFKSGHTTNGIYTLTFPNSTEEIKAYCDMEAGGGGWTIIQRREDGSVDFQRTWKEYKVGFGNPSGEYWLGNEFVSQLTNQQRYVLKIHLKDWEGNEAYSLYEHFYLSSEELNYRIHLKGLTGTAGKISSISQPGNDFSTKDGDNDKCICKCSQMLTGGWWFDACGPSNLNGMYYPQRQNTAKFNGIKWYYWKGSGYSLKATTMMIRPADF
How it is done:
as §1, §2

Assay [3] deals with T3, Ang2 with I434 mutated with alanine, tagged with FLAG (human, UniProt O15123 19-496, limits assumed).
T3 sequence: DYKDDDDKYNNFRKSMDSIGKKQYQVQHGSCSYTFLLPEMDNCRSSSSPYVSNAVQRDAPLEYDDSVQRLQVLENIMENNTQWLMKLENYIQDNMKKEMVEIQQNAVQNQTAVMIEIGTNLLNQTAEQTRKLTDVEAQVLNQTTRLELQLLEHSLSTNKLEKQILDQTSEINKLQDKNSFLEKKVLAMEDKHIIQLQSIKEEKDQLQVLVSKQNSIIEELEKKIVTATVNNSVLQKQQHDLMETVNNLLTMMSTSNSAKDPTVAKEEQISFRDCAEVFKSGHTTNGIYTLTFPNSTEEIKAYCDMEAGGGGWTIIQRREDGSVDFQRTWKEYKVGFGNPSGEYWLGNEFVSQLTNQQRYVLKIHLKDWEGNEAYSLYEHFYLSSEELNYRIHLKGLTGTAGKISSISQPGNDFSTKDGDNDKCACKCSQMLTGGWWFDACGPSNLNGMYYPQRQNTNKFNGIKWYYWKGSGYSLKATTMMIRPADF
The protocol:
as §1, §2

For assay [4], the target named is T4, Ang2 with Y460 mutated with alanine, tagged with FLAG (human, UniProt O15123 19-496, limits assumed).
T4 sequence: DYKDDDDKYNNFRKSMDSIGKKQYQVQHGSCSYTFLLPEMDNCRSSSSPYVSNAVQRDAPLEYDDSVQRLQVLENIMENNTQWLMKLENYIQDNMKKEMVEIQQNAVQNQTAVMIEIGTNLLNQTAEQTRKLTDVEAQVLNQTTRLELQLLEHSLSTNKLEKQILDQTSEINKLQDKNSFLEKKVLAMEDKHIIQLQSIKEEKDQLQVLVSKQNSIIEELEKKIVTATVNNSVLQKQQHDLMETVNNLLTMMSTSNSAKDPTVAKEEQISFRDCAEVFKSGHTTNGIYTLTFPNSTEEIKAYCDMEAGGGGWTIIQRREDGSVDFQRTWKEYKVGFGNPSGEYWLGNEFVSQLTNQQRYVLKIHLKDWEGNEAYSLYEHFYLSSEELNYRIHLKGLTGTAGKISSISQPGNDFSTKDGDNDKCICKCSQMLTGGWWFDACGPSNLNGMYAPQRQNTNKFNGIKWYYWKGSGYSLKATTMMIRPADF
How it is done:
as §1, §2

B1: SAIT-ANG-2-AB-2-E6 (scFv form) (scFv, V domains shown)
VH: EVQLLESGGGLVQTGGSLRLSCAASGFTFSDYAMSWVRQAPGKGLEWVSAIYPDSGNKYYADSVKGRFTISRDNSKNTLYLQMNSLRAEDTAVYYCARHSSDPKVKSGYYDDGMDVWGQGTLVAVSS
VL: QSVLTQPPSASGTPGQRVTISCSGSSSNIGNNAVNWYQQLPGTAPKLLIYADSNRPSGVPDRFSGSKSGTSASLAISGLRSEDEADYYCGSWDYSLSGYVFGGGTKLTVLG
notes: scFv from a phage display library, partly purified from E. coli periplasm on Ni-NTA and detected with anti-HA
For the molecule B1, the “Relative binding (%) with Mutant Ang2 compared to the binding with native Ang2” value (shortened to “Relative binding (%) with Mutant Ang2”) in assay [1] is 24%; in assay [2] it was 72.1%; in assay [3], 5.3%; in assay [4] it was 40%.

B2: SAIT-ANG-2-AB-7-C9 (scFv form) (scFv, V domains shown)
VH: EVQLLESGGGLVQPGGSLRLSCAASGFTFSNYAMSWVRQAPGKGLEWVSAISSGGGNIYYADSVKGRFTISRDNSKNTLYLQMNSLRAEDTAVYYCAKSGIQPSPPSMSSAYAMDVWGQGTLVTVSS
VL: QSVLTQPPSASGTPGQRVTISCSGSSSNIGNNDVYWYQQLPGTAPKLLIYANSHRPSGVPDRFSGSKSGTSASLAISGLRSEDEADYYCGTWDYSLSGYVFGGGTKLTVLG
notes: scFv from a phage display library
For B2, the “Relative binding (%) with Mutant Ang2” value in assay [1] turned out to be 85%; in assay [2], 86.6%; in assay [3], 8.7%; in assay [4], 78.1%.

B3: SAIT-ANG-2-AB-3-D3 (scFv form) (scFv, V domains shown)
VH: EVQLLESGGGLVQPGGSLRLSCAASGFTFSDYDMSWVRQAPGKGLEWVSGISSDDGNTYYADSVKGRFTISRDNSKNTLYLQMNSLRAEDTAVYYCARPTIDKYTLRGYYSYGMDVWGQGTLVTVSS
VL: QSVLTQPPSASGTPGQRVTISCTGSSSNIGSNYVSWYQQLPGTAPKLLIYSDNKRPSGVPDRFSGSKSGTSASLAISGLRSEDEADYYCGTWDDSLNGYVFGGGTKLTVLG
notes: as for B2
Consider B3, for which the “Relative binding (%) with Mutant Ang2” value came to 97.3% in assay [1], 90.9% in assay [2], 93.4% in assay [3] and 95.1% in assay [4].

B4: SAIT-ANG-2-AB-4-F5 (scFv form) (scFv, V domains shown)
VH: EVQLLESGGGLVQPGGSLRLSCAASGFTFSDYDMSWVRQAPGKGLEWVSSISHGDSNKYYADSVKGRFTISRDNSKNTLYLQMNSLRAEDTAVYYCAKSSGIQESPPTYYYYGMDVWGQGTLVTVSS
VL: QSVLTQPPSASGTPGQRVTISCSGSSSNIGSNAVNWYQQLPGTAPKLLIYADSNRPSGVPDRFSGSKSGTSASLAISGLRSEDEADYYCGSWDYSLSGYVFGGGTKLTVLG
notes: as for B2
As to B4, the “Relative binding (%) with Mutant Ang2” value stood at 15% in assay [1], 11.3% in assay [2], 68.6% in assay [3] and 21.8% in assay [4].

B5: SAIT-ANG-2-AB-4-C11 (scFv form) (scFv, V domains shown)
VH: EVQLLESGGGLVQPGGSLRLSCAASGFTFSDYAMSWVRQAPGKGLEWVSSIYPDDGNTYYADSVKGRFTISRDNSKNTLYLQMNSLRAEDTAVYYCARHTSHHTSIDGYYYYGMDGWGQGTLVTVSS
VL: QSVLTQPPSASGTPGQRVTISCTGSSSNIGNNDVSWYQQLPGTAPKLLIYSDSKRPSGVPDRFSGSKSGTSASLAISGLRSEDEADYYCGSWDYSLSGYVFGGGTKLTVLG
notes: as for B2
With B5, the “Relative binding (%) with Mutant Ang2” value in assay [1] stood at 70%; in assay [2] it was 81.7%; in assay [3] it was 7.2%; in assay [4], 74.3%.

B6: SAIT-ANG-2-AB-8-A5 (scFv form) (scFv, V domains shown)
VH: EVQLLESGGGLVQPGGSLRLSCAASGFTFSDYYMSWVRQAPGKGLEWVSGIYPSGGSTYYADSVKGRFTISRDNSKNTLYLQMNSLRAEDTAVYYCARDPSTLTYAGFDYWGQGTLVTVSS
VL: QSVLTQPPSASGTPGQRVTISCSGSSSNIGNNYVTWYQQLPGTAPKLLIYADSHRPSGVPDRFSGSKSGTSASLAISGLRSEDEADYYCATWDYSLSGYVFGGGTKLTVLG
notes: as for B2
Take B6: the “Relative binding (%) with Mutant Ang2” value in assay [1] was 86.5%; in assay [2], 90.7%; in assay [3] it was 4%; in assay [4] it was 91.6%.

B7: SAIT-ANG-2-AB-4-F11 (scFv form) (scFv, V domains shown)
VH: EVQLLESGGGLVQTGGSLRLSCAASGFTFSDYAMSWVRQAPGKGLEWVSSIYPDDGNTYYADSVKGRFTISRDNSKNTLYLQMNSLRAEDTAVYYCAKHPVRLNLHPMYYYYGMDVWGQGTLVTVSS
VL: QSVLTQPPSASGTPGQRVTISCTGSSSNIGNNAVSWYQQLPGTAPKLLIYSDSQRPSGVPDRFSGSKSGTSASLAISGLRSEDEADYYCATWDYSLSAYVFGGGTKLTVLG
notes: as for B2
In the case of B7, the “Relative binding (%) with Mutant Ang2” value in assay [1] came to 91.6%; in assay [2] it was 92%; in assay [3], 69%; in assay [4] it was 96.1%.
